# Results reported in paper PMC9482650, “Quantitative fragmentomics allow affinity mapping of interactomes” (Nature Communications, 2022).
# Numbering of substitutions follows the chain as printed.
# T1: APBA1_1, Q02410
# T1 sequence (Q02410 651-752, limits assumed, looked up): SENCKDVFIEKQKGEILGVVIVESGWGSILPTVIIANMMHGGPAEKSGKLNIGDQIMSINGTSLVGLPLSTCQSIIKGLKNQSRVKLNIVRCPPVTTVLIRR
# T2: APBA1_2, Q02410
# T2 sequence (Q02410 742-832, limits assumed, looked up): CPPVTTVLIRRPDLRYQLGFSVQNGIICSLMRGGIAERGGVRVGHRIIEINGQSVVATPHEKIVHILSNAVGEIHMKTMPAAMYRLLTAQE
# T3: APBA2_2, Q99767
# T3 sequence (Q99767 654-744, limits assumed, looked up): T2 sequence (Q02410 742-832, limits assumed, looked up) with R10K, R15K, P59A, H65Q, I66A, A70S, Y84F, A89G
# T4: ARHGEF11, O15085
# T4 sequence (O15085 42-136, limits assumed, looked up): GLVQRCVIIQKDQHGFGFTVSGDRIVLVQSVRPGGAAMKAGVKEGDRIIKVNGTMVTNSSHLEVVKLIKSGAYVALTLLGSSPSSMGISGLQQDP
# T5: DFNB31_1, Q9P202
# T5 sequence (Q9P202 135-233, limits assumed, looked up): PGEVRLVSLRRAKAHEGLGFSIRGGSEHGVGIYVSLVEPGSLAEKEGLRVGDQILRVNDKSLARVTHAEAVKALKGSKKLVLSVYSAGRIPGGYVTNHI
# T6: DLG3_3, Q92796
# T6 sequence (Q92796 374-475, limits assumed, looked up): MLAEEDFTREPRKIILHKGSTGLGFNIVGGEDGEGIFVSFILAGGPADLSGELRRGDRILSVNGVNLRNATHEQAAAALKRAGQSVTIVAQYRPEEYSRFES
# T7: GRIP1_2, Q9Y3R0
# T7 sequence (Q9Y3R0 145-248, limits assumed, looked up): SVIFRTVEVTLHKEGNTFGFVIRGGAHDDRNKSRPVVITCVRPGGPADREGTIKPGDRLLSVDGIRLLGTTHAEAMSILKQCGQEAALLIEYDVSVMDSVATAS
# T8: GRIP1_3, Q9Y3R0
# T8 sequence (Q9Y3R0 247-346, limits assumed, looked up): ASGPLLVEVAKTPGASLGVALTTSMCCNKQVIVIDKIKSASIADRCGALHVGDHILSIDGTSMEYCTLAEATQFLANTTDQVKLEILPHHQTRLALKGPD
# T9: GRIP1_4, Q9Y3R0
# T9 sequence (Q9Y3R0 467-571, limits assumed, looked up): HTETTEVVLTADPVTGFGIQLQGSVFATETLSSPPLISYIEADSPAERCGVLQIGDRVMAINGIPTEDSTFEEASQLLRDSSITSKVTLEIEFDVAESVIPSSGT
# T10: HTRA4, P83105
# T10 sequence (P83105 378-476, limits assumed, looked up): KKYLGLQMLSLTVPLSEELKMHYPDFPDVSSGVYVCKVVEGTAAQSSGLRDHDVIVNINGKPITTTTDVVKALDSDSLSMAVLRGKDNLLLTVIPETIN
# T11: MPP6, Q9NZW5
# T11 sequence (Q9NZW5 125-219, limits assumed, looked up): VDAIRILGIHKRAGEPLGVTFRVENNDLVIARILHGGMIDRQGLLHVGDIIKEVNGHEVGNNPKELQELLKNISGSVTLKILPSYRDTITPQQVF
# T12: MPP7, Q5T2T1
# T12 sequence (Q5T2T1 134-230, limits assumed, looked up): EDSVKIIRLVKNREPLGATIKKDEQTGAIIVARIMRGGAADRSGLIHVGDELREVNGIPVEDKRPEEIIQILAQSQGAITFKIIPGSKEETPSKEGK
# T13: PDZD7_3, Q9H5P4
# T13 sequence (Q9H5P4 857-944, limits assumed, looked up): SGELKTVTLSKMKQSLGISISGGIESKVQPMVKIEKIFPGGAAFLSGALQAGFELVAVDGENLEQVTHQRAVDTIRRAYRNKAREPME
# T14: SNTG2, Q9NY99
# T14 sequence (Q9NY99 68-166, limits assumed, looked up): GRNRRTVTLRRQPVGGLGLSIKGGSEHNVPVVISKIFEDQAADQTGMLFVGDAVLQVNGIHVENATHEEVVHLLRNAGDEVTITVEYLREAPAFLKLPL
# Molecular target: T1, APBA1_1, Q02410
# Test: holdup assay
# Parameters: key: below the threshold = too weak to quantify, mostly under pKd 3.1 to 4
# Conditions: plain residues with an end cap or a label only (N-terminal biotin on a linker: ado-ado)
row,Binder,pKd
1,"GIKKITSTAL [RPS6KA3, P51812]",below the threshold
2,"PSHPRLQTHV [KIRREL2, Q6UWL6]",below the threshold

# Molecular target: T2, APBA1_2, Q02410
# Test: holdup assay
# Parameters: key: below the threshold = too weak to quantify, mostly under pKd 3.1 to 4
# Conditions: plain residues with an end cap or a label only (N-terminal biotin on a linker: ado-ado)
row,Binder,pKd
1,"GIKKITSTAL [RPS6KA3, P51812]",4.1
2,"PSHPRLQTHV [KIRREL2, Q6UWL6]",3.74

# Molecular target: T3, APBA2_2, Q99767
# Test: holdup assay
# Parameters: key: below the threshold = too weak to quantify, mostly under pKd 3.1 to 4
# Conditions: plain residues with an end cap or a label only (N-terminal biotin on a linker: ado-ado)
row,Binder,pKd
1,"GIKKITSTAL [RPS6KA3, P51812]",below the threshold
2,"PSHPRLQTHV [KIRREL2, Q6UWL6]",below the threshold

# Molecular target: T4, ARHGEF11, O15085
# Test: holdup assay
# Parameters: key: below the threshold = too weak to quantify, mostly under pKd 3.1 to 4
# Conditions: plain residues with an end cap or a label only (N-terminal biotin on a linker: ado-ado)
row,Binder,pKd
1,"GIKKITSTAL [RPS6KA3, P51812]",5.01
2,"PSHPRLQTHV [KIRREL2, Q6UWL6]",4.06

# Molecular target: T5, DFNB31_1, Q9P202
# Test: holdup assay
# Parameters: key: below the threshold = too weak to quantify, mostly under pKd 3.1 to 4
# Conditions: plain residues with an end cap or a label only (N-terminal biotin on a linker: ado-ado)
row,Binder,pKd
1,"GIKKITSTAL [RPS6KA3, P51812]",4.39
2,"PSHPRLQTHV [KIRREL2, Q6UWL6]",below the threshold

# Molecular target: DLG2_3, Q15700
# Test: holdup assay
# Parameters: key: below the threshold = too weak to quantify, mostly under pKd 3.1 to 4
# Conditions: plain residues with an end cap or a label only (N-terminal biotin on a linker: ado-ado)
row,Binder,pKd
1,"GIKKITSTAL [RPS6KA3, P51812]",3.63
2,"PSHPRLQTHV [KIRREL2, Q6UWL6]",4.26

# Molecular target: T6, DLG3_3, Q92796
# Test: holdup assay
# Parameters: key: below the threshold = too weak to quantify, mostly under pKd 3.1 to 4
# Conditions: plain residues with an end cap or a label only (N-terminal biotin on a linker: ado-ado)
row,Binder,pKd
1,"GIKKITSTAL [RPS6KA3, P51812]",3.85
2,"PSHPRLQTHV [KIRREL2, Q6UWL6]",3.75

# Molecular target: DLG5_1, Q8TDM6
# Sequence (Q8TDM6 617-713): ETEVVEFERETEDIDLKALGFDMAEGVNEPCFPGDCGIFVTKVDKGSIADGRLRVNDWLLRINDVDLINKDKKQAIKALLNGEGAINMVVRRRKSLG
# Test: holdup assay
# Parameters: key: below the threshold = too weak to quantify, mostly under pKd 3.1 to 4
# Conditions: plain residues with an end cap or a label only (N-terminal biotin on a linker: ado-ado)
row,Binder,pKd
1,"GIKKITSTAL [RPS6KA3, P51812]",below the threshold
2,"PSHPRLQTHV [KIRREL2, Q6UWL6]",below the threshold

# Molecular target: GRID2IP_2, A4D2P6
# Sequence (A4D2P6 272-370): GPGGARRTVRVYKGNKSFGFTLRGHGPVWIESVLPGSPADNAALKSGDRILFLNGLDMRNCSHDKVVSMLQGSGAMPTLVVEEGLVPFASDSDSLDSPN
# Test: holdup assay
# Parameters: key: below the threshold = too weak to quantify, mostly under pKd 3.1 to 4
# Conditions: plain residues with an end cap or a label only (N-terminal biotin on a linker: ado-ado)
row,Binder,pKd
1,"GIKKITSTAL [RPS6KA3, P51812]",4.74
2,"PSHPRLQTHV [KIRREL2, Q6UWL6]",4.08

# Molecular target: T7, GRIP1_2, Q9Y3R0
# Test: holdup assay
# Parameters: key: below the threshold = too weak to quantify, mostly under pKd 3.1 to 4
# Conditions: plain residues with an end cap or a label only (N-terminal biotin on a linker: ado-ado)
row,Binder,pKd
1,"GIKKITSTAL [RPS6KA3, P51812]",3.5
2,"PSHPRLQTHV [KIRREL2, Q6UWL6]",below the threshold

# Molecular target: T8, GRIP1_3, Q9Y3R0
# Test: holdup assay
# Parameters: key: below the threshold = too weak to quantify, mostly under pKd 3.1 to 4
# Conditions: plain residues with an end cap or a label only (N-terminal biotin on a linker: ado-ado)
row,Binder,pKd
1,"GIKKITSTAL [RPS6KA3, P51812]",below the threshold
2,"PSHPRLQTHV [KIRREL2, Q6UWL6]",below the threshold

# Molecular target: T9, GRIP1_4, Q9Y3R0
# Test: holdup assay
# Parameters: key: below the threshold = too weak to quantify, mostly under pKd 3.1 to 4
# Conditions: plain residues with an end cap or a label only (N-terminal biotin on a linker: ado-ado)
row,Binder,pKd
1,"GIKKITSTAL [RPS6KA3, P51812]",3.62
2,"PSHPRLQTHV [KIRREL2, Q6UWL6]",below the threshold

# Molecular target: GRIP2_5, Q9C0E4
# Sequence (Q9C0E4 544-642): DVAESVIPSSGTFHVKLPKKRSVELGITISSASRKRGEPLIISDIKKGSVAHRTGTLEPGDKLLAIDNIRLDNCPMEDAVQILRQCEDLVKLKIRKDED
# Test: holdup assay
# Parameters: key: below the threshold = too weak to quantify, mostly under pKd 3.1 to 4
# Conditions: plain residues with an end cap or a label only (N-terminal biotin on a linker: ado-ado)
row,Binder,pKd
1,"GIKKITSTAL [RPS6KA3, P51812]",3.8
2,"PSHPRLQTHV [KIRREL2, Q6UWL6]",below the threshold

# Molecular target: T10, HTRA4, P83105
# Test: holdup assay
# Parameters: key: below the threshold = too weak to quantify, mostly under pKd 3.1 to 4
# Conditions: plain residues with an end cap or a label only (N-terminal biotin on a linker: ado-ado)
row,Binder,pKd
1,"GIKKITSTAL [RPS6KA3, P51812]",below the threshold
2,"PSHPRLQTHV [KIRREL2, Q6UWL6]",3.6

# Molecular target: IL16_1, Q14005
# Sequence (Q14005 210-306): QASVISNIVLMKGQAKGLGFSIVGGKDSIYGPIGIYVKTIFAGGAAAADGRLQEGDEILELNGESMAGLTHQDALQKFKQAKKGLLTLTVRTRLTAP
# Test: holdup assay
# Parameters: key: below the threshold = too weak to quantify, mostly under pKd 3.1 to 4
# Conditions: plain residues with an end cap or a label only (N-terminal biotin on a linker: ado-ado)
row,Binder,pKd
1,"GIKKITSTAL [RPS6KA3, P51812]",3.5
2,"PSHPRLQTHV [KIRREL2, Q6UWL6]",below the threshold

# Molecular target: IL16_3, Q14005
# Sequence (Q14005 1107-1207): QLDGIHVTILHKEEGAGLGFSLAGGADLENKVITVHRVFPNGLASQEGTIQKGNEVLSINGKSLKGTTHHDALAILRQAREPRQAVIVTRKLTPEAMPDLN
# Test: holdup assay
# Parameters: key: below the threshold = too weak to quantify, mostly under pKd 3.1 to 4
# Conditions: plain residues with an end cap or a label only (N-terminal biotin on a linker: ado-ado)
row,Binder,pKd
1,"GIKKITSTAL [RPS6KA3, P51812]",below the threshold
2,"PSHPRLQTHV [KIRREL2, Q6UWL6]",below the threshold

# Molecular target: Inadl_4, Q8NI35
# Sequence (Q8NI35 547-651): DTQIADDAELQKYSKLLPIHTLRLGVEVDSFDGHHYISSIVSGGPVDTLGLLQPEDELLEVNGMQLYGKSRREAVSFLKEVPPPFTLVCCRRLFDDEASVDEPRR
# Test: holdup assay
# Parameters: key: below the threshold = too weak to quantify, mostly under pKd 3.1 to 4
# Conditions: plain residues with an end cap or a label only (N-terminal biotin on a linker: ado-ado)
row,Binder,pKd
1,"GIKKITSTAL [RPS6KA3, P51812]",below the threshold
2,"PSHPRLQTHV [KIRREL2, Q6UWL6]",below the threshold

# Molecular target: MAST1, Q9Y2H9
# Sequence (Q9Y2H9 962-1065): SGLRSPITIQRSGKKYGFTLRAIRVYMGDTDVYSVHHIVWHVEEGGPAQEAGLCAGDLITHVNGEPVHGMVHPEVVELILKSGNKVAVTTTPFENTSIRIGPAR
# Test: holdup assay
# Parameters: key: below the threshold = too weak to quantify, mostly under pKd 3.1 to 4
# Conditions: plain residues with an end cap or a label only (N-terminal biotin on a linker: ado-ado)
row,Binder,pKd
1,"GIKKITSTAL [RPS6KA3, P51812]",5.06
2,"PSHPRLQTHV [KIRREL2, Q6UWL6]",4.5

# Molecular target: T11, MPP6, Q9NZW5
# Test: holdup assay
# Parameters: key: below the threshold = too weak to quantify, mostly under pKd 3.1 to 4
# Conditions: plain residues with an end cap or a label only (N-terminal biotin on a linker: ado-ado)
row,Binder,pKd
1,"GIKKITSTAL [RPS6KA3, P51812]",below the threshold
2,"PSHPRLQTHV [KIRREL2, Q6UWL6]",3.59

# Molecular target: T12, MPP7, Q5T2T1
# Test: holdup assay
# Parameters: key: below the threshold = too weak to quantify, mostly under pKd 3.1 to 4
# Conditions: plain residues with an end cap or a label only (N-terminal biotin on a linker: ado-ado)
row,Binder,pKd
1,"GIKKITSTAL [RPS6KA3, P51812]",below the threshold
2,"PSHPRLQTHV [KIRREL2, Q6UWL6]",below the threshold

# Molecular target: NHERF2_2, Q15599
# Sequence (Q15599 142-238): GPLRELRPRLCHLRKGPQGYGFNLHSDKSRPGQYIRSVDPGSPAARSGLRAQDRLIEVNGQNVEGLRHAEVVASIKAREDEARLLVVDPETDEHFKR
# Test: holdup assay
# Parameters: key: below the threshold = too weak to quantify, mostly under pKd 3.1 to 4
# Conditions: plain residues with an end cap or a label only (N-terminal biotin on a linker: ado-ado)
row,Binder,pKd
1,"GIKKITSTAL [RPS6KA3, P51812]",4.76
2,"PSHPRLQTHV [KIRREL2, Q6UWL6]",below the threshold

# Molecular target: PARD3_3, Q8TEW0
# Sequence (Q8TEW0 582-685): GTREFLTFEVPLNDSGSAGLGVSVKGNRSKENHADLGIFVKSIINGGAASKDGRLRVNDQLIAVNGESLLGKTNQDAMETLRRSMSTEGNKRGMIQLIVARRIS
# Test: holdup assay
# Parameters: key: below the threshold = too weak to quantify, mostly under pKd 3.1 to 4
# Conditions: plain residues with an end cap or a label only (N-terminal biotin on a linker: ado-ado)
row,Binder,pKd
1,"GIKKITSTAL [RPS6KA3, P51812]",3.51
2,"PSHPRLQTHV [KIRREL2, Q6UWL6]",below the threshold

# Molecular target: T13, PDZD7_3, Q9H5P4
# Test: holdup assay
# Parameters: key: below the threshold = too weak to quantify, mostly under pKd 3.1 to 4
# Conditions: plain residues with an end cap or a label only (N-terminal biotin on a linker: ado-ado)
row,Binder,pKd
1,"GIKKITSTAL [RPS6KA3, P51812]",4.92
2,"PSHPRLQTHV [KIRREL2, Q6UWL6]",4.61

# Molecular target: T14, SNTG2, Q9NY99
# Test: holdup assay
# Parameters: key: below the threshold = too weak to quantify, mostly under pKd 3.1 to 4
# Conditions: plain residues with an end cap or a label only (N-terminal biotin on a linker: ado-ado)
row,Binder,pKd
1,"GIKKITSTAL [RPS6KA3, P51812]",4.23
2,"PSHPRLQTHV [KIRREL2, Q6UWL6]",below the threshold
